Experimental data as given in doi:10.1101/395996, “An interaction network of the human SEPT9 established by quantitative mass spectrometry reveals an interplay with myosin motors” (bioRxiv, 2018).

B1: GST-MYO6_(835-1294) (domain or fragment, UniProt Q9UM54 835-1294, looked up)
chain: PRIDGLVKVGTLKKRLDKFNEVVSVLKDGKPEMNKQIKNLEISIDTLMAKIKSTMMTQEQIQKEYDALVKSSEELLSALQKKKQQEEEAERLRRIQEEMEKERKRREEDEKRRRKEEEERRMKLEMEAKRKQEEEERKKREDDEKRIQAEVEAQLARQKEEESQQQAVLEQERRDRELALRIAQSEAELISDEAQADLALRRSLDSYPVSKNDGTRPKMTPEQMAKEMSEFLSRGPAVLATKAAAGTKKYDLSKWKYAELRDTINTSCDIELLAACREEFHRRLKVYHAWKSKNKKRNTETEQRAPKSVTDYDFAPFLNNSPQQNPAAQIPARQREIEMNRQQRFFRIPFIRPADQYKDPQSKKKGWWYAHFDGPWIARQMELHPDKPPILLVAGKDDMEMCELNLEETGLTRKRGAEILPRQFEEIWERCGGIQYLQNAIESRQARPTYATAMLQSLLK
notes: cloned in pGEX2T; also called C-terminal tail fragment of MYO6; source: E. coli, immobilised on Glutathione Sepharose from the crude extract; not shown: GST, N-terminal, kept
B2: GST-MYO1C_(809-1063) (domain or fragment, human, UniProt O00159 809-1063, looked up)
chain: LDHVRTSFLLNLRRQLPQNVLDTSWPTPPPALREASELLRELCIKNMVWKYCRSISPEWKQQLQQKAVASEIFKGKKDNYPQSVPRLFISTRLGTDEISPRVLQALGSEPIQYAVPVVKYDRKGYKPRSRQLLLTPNAVVIVEDAKVKQRIDYANLTGISVSSLSDSLFVLHVQRADNKQKGDVVLQSDHVIETLTKTALSANRVNSININQGSITFAGGPGRDGTIDFTPGSELLITKAKNGHLAVVAPRLNSR
notes: MYO1C, C-terminal tail fragment, amino acids 809-1063, amplified from cDNA of human 1306 fibroblast mRNA; cloned in pGEX2T; also called C-terminal tail fragment of MYO1C; source: E. coli, immobilised on Glutathione Sepharose from the crude extract; not shown: GST, N-terminal, kept

Molecular target: T1, 6his-SEPT9 (human, UniProt Q9UHD8 2-586)
T1 construct: SEPT9, human, PCR amplified from the GFP-SEPT9_i1 plasmid; the forward primer starts at the second codon (aag aag tct tac tca gga gg), the reverse primer holds the stop codon; also called 6his tagged SEPT9; 6his-tagged SEPT9; source: E. coli, purified (IMAC, approx. 70 % purity; desalted into PBS); not shown: His6, N-terminal, kept
T1 sequence (looked up): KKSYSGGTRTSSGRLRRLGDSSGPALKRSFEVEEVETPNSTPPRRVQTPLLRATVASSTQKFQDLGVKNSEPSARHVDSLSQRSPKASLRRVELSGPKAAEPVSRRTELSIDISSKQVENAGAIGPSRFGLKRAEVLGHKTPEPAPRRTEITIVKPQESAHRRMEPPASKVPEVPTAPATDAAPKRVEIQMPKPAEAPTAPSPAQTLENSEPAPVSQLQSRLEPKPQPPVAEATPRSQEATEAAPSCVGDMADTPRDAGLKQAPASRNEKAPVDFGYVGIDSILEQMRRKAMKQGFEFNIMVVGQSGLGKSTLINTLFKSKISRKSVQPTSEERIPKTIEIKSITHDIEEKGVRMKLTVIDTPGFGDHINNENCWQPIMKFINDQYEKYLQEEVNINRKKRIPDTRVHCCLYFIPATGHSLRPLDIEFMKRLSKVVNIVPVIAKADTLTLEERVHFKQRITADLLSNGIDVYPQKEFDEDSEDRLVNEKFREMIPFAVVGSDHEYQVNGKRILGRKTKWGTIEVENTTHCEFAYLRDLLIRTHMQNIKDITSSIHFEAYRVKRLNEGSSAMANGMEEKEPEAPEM
Test: pull-down; GST fusions immobilised on Glutathione Sepharose from crude E. coli extract, incubated with 2 µM 6his-SEPT9 for 1 h in PBS; Western blot with anti-6his antibody; free GST as control
Details: both partners purified

Binder	binding result
B1	binds
B2	binds
